Ends that are not written are not given here. * marks the point of attachment. Biotin = O=C1N[C@H]2[C@H](CS[C@H]2CCCCC(=O)*)N1
T1: GST-41.8 kD (hypothetical 41.8 kD protein) PDZ domain fusion protein (Mus musculus (Mouse), UniProt Q9EQZ7 682-763)
T1 construct: not shown: glutathione S-transferase (GST) encoded by pGEX-3X
T1 sequence: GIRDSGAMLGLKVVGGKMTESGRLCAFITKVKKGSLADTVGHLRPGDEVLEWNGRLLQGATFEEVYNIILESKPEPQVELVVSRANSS

T2: GST-MPP1 PDZ domain fusion protein (Homo sapiens (Human), UniProt Q00013 67-152)
T2 construct: also called 55 Kd erythrocyte membrane protein; not shown: glutathione S-transferase (GST) encoded by pGEX-3X
T2 sequence: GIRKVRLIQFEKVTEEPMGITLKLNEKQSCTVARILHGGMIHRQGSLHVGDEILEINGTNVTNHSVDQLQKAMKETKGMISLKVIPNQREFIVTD

T3: GST-DVL1 PDZ domain fusion protein (human)
T3 construct: also called human dishevelled segment polarity protein homolog; not shown: glutathione S-transferase (GST) encoded by pGEX-3X
T3 chain: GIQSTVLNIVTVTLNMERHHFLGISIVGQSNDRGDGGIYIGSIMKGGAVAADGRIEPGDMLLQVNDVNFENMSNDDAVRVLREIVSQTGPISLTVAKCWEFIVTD

T4: GST-NeDLG PDZ domains 1-2 fusion protein (Mus musculus (Mouse), UniProt P70175 147-332)
T4 construct: also called NeDLG1; not shown: glutathione S-transferase (GST) encoded by pGEX-3X
T4 chain: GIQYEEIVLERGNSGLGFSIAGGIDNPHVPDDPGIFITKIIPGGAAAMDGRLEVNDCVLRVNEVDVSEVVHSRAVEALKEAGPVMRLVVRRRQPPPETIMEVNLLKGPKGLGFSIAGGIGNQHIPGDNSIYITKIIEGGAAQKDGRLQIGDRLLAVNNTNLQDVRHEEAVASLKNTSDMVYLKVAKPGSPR

T5: GST-MPP2 PDZ domain fusion protein
T5 construct: also called maguk p55 subfamily member 2 (DLG2); MMP2; not shown: glutathione S-transferase (GST) encoded by pGEX-3X
T5 chain: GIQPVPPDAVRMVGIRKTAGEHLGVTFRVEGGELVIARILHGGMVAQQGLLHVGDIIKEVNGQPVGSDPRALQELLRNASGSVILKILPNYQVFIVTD

T6: GST-prIL16 PDZ domains 1-2 fusion protein (Homo sapiens (Human), UniProt Q14005 1110-1325)
T6 construct: also called putative interleukin 16 precursor; not shown: glutathione S-transferase (GST) encoded by pGEX-3X
T6 sequence: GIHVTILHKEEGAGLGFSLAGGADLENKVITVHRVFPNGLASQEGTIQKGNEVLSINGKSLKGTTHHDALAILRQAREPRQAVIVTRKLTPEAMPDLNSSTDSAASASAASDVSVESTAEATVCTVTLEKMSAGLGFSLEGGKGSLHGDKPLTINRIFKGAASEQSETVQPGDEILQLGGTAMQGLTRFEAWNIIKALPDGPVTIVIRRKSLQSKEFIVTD

T7: GST-SYN1a (alpha1-syntrophin) PDZ domain fusion protein (Homo sapiens (Human), UniProt Q13424 84-179)
T7 construct: also called SYN 1 α; not shown: glutathione S-transferase (GST) encoded by pGEX-3X
T7 sequence: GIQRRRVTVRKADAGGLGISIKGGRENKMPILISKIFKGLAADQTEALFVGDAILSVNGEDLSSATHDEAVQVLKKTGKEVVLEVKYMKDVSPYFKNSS

T8: GST-LIMK2 PDZ domain fusion protein (human, UniProt P53671 147-237)
T8 construct: also called human LIM domain kinase 2; not shown: glutathione S-transferase (GST) encoded by pGEX-3X
T8 sequence: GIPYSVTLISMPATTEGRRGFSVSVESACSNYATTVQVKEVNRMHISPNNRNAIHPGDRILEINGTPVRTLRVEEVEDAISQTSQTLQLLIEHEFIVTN

T9: GST-MINT3 PDZ domain fusion protein (human)
T9 construct: also called human MINT3; not shown: glutathione S-transferase (GST) encoded by pGEX-3X
T9 chain: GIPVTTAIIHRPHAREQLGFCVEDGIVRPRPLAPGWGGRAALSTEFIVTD

T10: GST-TAX2 PDZ domain fusion protein (human, UniProt O14908 129-216)
T10 construct: not shown: glutathione S-transferase (GST) encoded by pGEX-3X
T10 chain: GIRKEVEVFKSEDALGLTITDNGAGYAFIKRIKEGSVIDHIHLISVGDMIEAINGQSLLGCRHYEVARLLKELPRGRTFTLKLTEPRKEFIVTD

T11: GST-TAX33 PDZ domain fusion protein (Homo sapiens (Human), UniProt O14910 103-194)
T11 construct: not shown: glutathione S-transferase (GST) encoded by pGEX-3X
T11 sequence: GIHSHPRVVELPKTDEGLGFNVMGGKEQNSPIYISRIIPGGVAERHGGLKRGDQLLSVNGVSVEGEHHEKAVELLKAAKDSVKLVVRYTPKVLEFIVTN

B1: CLASP-2 C-terminal peptide AA2L (peptide)
peptide: Biotin-ISGTPTSTMVHGMTSSSSVV
B2: VCAM1 C-terminal peptide AA17L (peptide)
peptide: Biotin-ARKANMKGSYSLVEAQKSKV
B3: DNAM-1 C-terminal peptide AA22L (peptide)
peptide: Biotin-TREDIYVNYPTFSRRPKTRV
B4: KV1.3 C-terminal peptide AA33L (peptide)
peptide: Biotin-TTNNNPNSAVNIKKIFTDV
B5: CLASP-1 C-terminal peptide AA1L (peptide)
peptide: Biotin-ISKATPALPTVSISSSAEV
B6: CDW128A (IL8RA) C-terminal peptide AA29.1L (peptide)
peptide: Biotin-ARHRVTSYTSSSVNVSSNL
B7: CD98 (2F4) C-terminal peptide AA15L (peptide)
peptide: Biotin-ERLKLEPHEGLLLRFPYAA
B8: CD44 (long form) C-terminal peptide AA9L (peptide)
peptide: Biotin-QFMTADETRNLQNVDMKIGV
B9: DOCK2 C-terminal peptide AA40L (peptide)
peptide: Biotin-LASKSAEEGKQIPDSLSTDL
B10: LPAP C-terminal peptide AA30L (peptide)
peptide: Biotin-AWDDSARAAGGQGLHVTAL
B11: CD95 (Apo-1/Fas) C-terminal peptide AA13L (peptide)
peptide: Biotin-KDITSDSENSNFRNEIQSLV
B12: CDW128B (IL8RB) C-terminal peptide AA29.2L (peptide)
peptide: Biotin-KDSRPSFVGSSSGHTSTTL

These binders were tested against T1, GST-41.8 kD (hypothetical 41.8 kD …) (assay: A assay).

Binder	binding result
B1	binds

Each binder was assayed against T2, GST-MPP1 PDZ domain fusion protein (assay: A assay).

Binder	binding result
B2	binds
B3	binds

Molecular target: T3, GST-DVL1 PDZ domain fusion protein
Test: A assay

Binder	binding result
B4	binds

The binders below were run against T12, GST-PSD95 PDZ domains 1-3 fusion protein (human, UniProt P31016 58-395 (rat entry)) (assay: A assay).
T12 construct: not shown: glutathione S-transferase (GST) encoded by pGEX-3X
T12 sequence (P31016 other isoform, or with tags, fused parts or gaps): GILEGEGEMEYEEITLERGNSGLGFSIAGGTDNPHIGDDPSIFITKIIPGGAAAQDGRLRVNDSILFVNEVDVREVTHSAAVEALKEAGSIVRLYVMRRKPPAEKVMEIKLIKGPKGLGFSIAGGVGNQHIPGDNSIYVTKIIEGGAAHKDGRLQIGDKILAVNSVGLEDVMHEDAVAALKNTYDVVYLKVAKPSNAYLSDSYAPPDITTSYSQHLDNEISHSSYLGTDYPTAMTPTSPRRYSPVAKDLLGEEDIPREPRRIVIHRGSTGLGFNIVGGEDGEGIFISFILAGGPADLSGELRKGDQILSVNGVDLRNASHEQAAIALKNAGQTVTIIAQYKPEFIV

Binder	binding result
B5	binds

Molecular target: T4, GST-NeDLG PDZ domains 1-2 fusion protein
Test: A assay

Binder	binding result
B2	binds
B3	binds
B6	binds

Molecular target: T5, GST-MPP2 PDZ domain fusion protein
Test: G assay

Binder	binding result
B7	binds
B3	binds

What follows are binders tested against T6, GST-prIL16 PDZ domains 1-2 fusion … (assay: G assay).

Binder	binding result
B8	binds

These binders were tested against T2, GST-MPP1 PDZ domain fusion protein (assay: G assay).

Binder	binding result
B8	binds

Molecular target: T4, GST-NeDLG PDZ domains 1-2 fusion protein
Test: G assay

Binder	binding result
B9	binds
B5	binds

These binders were tested against T7, GST-SYN1a (alpha1-syntrophin) PDZ … (assay: G assay).

Binder	binding result
B9	binds

Each binder was assayed against T8, GST-LIMK2 PDZ domain fusion protein (assay: A/G assays).

Binder	binding result
B7	no binding
B2	no binding
B4	no binding
B3	no binding
B8	no binding
B9	no binding
B5	no binding
B6	no binding
B10	no binding
B1	no binding
B11	no binding
B12	no binding

Molecular target: T5, GST-MPP2 PDZ domain fusion protein
Test: A/G assays

Binder	binding result
B2	no binding
B4	no binding
B8	no binding
B9	no binding
B5	no binding
B6	no binding
B10	no binding
B1	no binding
B11	no binding
B12	no binding

What follows are binders tested against T13, GST-NOS1 PDZ domain fusion protein (human, UniProt P29475 11-101) (assay: A/G assays).
T13 construct: also called human neuronal nitric oxide synthase; not shown: glutathione S-transferase (GST) encoded by pGEX-3X
T13 sequence (P29475 other isoform, or with tags, fused parts or gaps): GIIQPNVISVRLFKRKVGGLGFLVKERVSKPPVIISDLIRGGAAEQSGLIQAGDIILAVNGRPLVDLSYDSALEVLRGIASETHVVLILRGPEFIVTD

Binder	binding result
B7	no binding
B3	no binding
B10	no binding

The binders below were run against T14, GST-KIAA0316 PDZ domain fusion protein (Homo sapiens (Human), UniProt Q14CM0 72-159) (assay: A/G assays).
T14 construct: also called K316; not shown: glutathione S-transferase (GST) encoded by pGEX-3X
T14 sequence (Q14CM0 other isoform, or with tags, fused parts or gaps): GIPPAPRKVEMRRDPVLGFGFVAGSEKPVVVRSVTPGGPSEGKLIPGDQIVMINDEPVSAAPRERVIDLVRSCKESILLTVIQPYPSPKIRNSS

Binder	binding result
B7	no binding
B10	no binding

Molecular target: T3, GST-DVL1 PDZ domain fusion protein
Test: A/G assays

Binder	binding result
B7	no binding
B2	no binding
B3	no binding
B8	no binding
B9	no binding
B5	no binding
B6	no binding
B10	no binding
B1	no binding
B11	no binding
B12	no binding

Molecular target: T9, GST-MINT3 PDZ domain fusion protein
Test: A/G assays

Binder	binding result
B7	no binding
B2	no binding
B4	no binding
B3	no binding
B8	no binding
B9	no binding
B5	no binding
B6	no binding
B10	no binding
B1	no binding
B11	no binding
B12	no binding

Molecular target: T10, GST-TAX2 PDZ domain fusion protein
Test: A/G assays

Binder	binding result
B7	no binding
B2	no binding
B4	no binding
B3	no binding
B8	no binding
B9	no binding
B5	no binding
B6	no binding
B10	no binding
B1	no binding
B11	no binding
B12	no binding

Molecular target: T4, GST-NeDLG PDZ domains 1-2 fusion protein
Test: A/G assays

Binder	binding result
B7	no binding
B8	no binding
B10	no binding

These binders were tested against T11, GST-TAX33 PDZ domain fusion protein (assay: A/G assays).

Binder	binding result
B7	no binding

These binders were tested against T7, GST-SYN1a (alpha1-syntrophin) PDZ … (assay: A/G assays).

Binder	binding result
B7	no binding
B2	no binding
B4	no binding
B3	no binding
B8	no binding
B5	no binding
B6	no binding
B10	no binding
B1	no binding
B11	no binding
B12	no binding

Molecular target: T4, GST-NeDLG PDZ domains 1-2 fusion protein
Test: A and G assays

Binder	binding result
B4	binds
B12	binds

Molecular target: T4, GST-NeDLG PDZ domains 1-2 fusion protein
Test: G assay titration of biotinylated peptide on immobilized GST-PDZ, saturation fit (apparent affinity)
From the text: FIGS. 2A and 2B show the Apparent Affinity Determination for PDZ-Ligand Interactions. […] The binding to GST alone (<0.2 OD units) was subtracted from the binding to the fusion proteins to obtain the signal at each peptide concentration.

Binder	Kd [µM]
B1	7.5
B11	54

Source: patent publication US6942981
